Paper PMC11891784, “Reversible enzyme-catalysed NAD^+/NADH electrochemistry” (Chemical Science, 2025)

Substrate: NC(=O)c1ccc[n+]([C@@H]2O[C@H](COP(=O)(O)OP(=O)(O)OC[C@H]3O[C@@H](n4cnc5c(N)ncnc54)[C@H](O)[C@@H]3O)[C@@H](O)[C@H]2O)c1
Experiment: mediated catalytic cyclic voltammetry
Type: biochemical, Cupriavidus necator
Settings: methyl viologen 60 μM as electron donor, 50 mM phosphate pH 7.5, 25 °C, N2, FdsBG 0.34 μM, turnover number calculated from simulated rate constant and Km

B1: FdsBG (subcomplex of formate dehydrogenase FdsDABG) (Cupriavidus necator H16) (protein)
chain: MITITTIFVPRDSTALALGADDVARAIAREAAARNEHVRIVRNGSRGMFWLEPLVEVQTGAGRVAYGPVSAADVPGLFDAGLLQGGEHALSQGVTEEIPFLKQQERLTFARVGITDPLSLDDYRAHEGFAGLERALAMQPAEIVQEVTDSGLRGRGGAAFPTGIKWKTVLGAQSAVKYIVCNADEGDSGTFSDRMVMEDDPFMLIEGMTIAALAVGAEQGYIYCRSEYPHAIAVLESAIGIANAAGWLGDDIRGSGKRFHLEVRKGAGAYVCGEETALLESLEGRRGVVRAKPPLPALQGLFGKPTVINNVISLATVPVILARGAQYYRDYGMGRSRGTLPFQLAGNIKQGGLVEKAFGVTLRELLVDYGGGTRSGRAIRAVQVGGPLGAYLPESRFDVPLDYEAYAAFGGVVGHGGIVVFDETVDMAKQARYAMEFCAIESCGKCTPCRIGSTRGVEVMDRIIAGEQPVKHVALVRDLCDTMLNGSLCAMGGMTPYPVLSALNEFPEDFGLASNPAKAA
notes: FdsBG subcomplex without FdsA and FdsD; FdsB 55 kDa (FMN, [4Fe-4S]) and FdsG 19 kDa ([2Fe-2S]); 74 kDa in total; expressed and purified by a published procedure; with NAD-dependent formate dehydrogenase gamma subunit
**Q.** For B1, which Km is on record?
**A.** Its Km is 1.2(1) mM.

**Q.** What about the kcat of the same protein?
**A.** The kcat was 2400 s⁻¹.
